Test results taken from patent US20070089183A1 (WASHINGTON STATE UNIVERSITY, published 2007).

Target: dansyl-CaM (Sigma) (Homo sapiens (Human), UniProt P0DP23 2-149)
Assay: fluorescence titration of dansyl-CaM with increasing amounts of peptide

CRKKYRAIGTFMSVYYKSKKGR (also called synthetic DWF1 CaMBD) [synthetic DWF1 CaM-binding peptide (518-539), CRKKYRAIGTFMSVYYKSKKGR]
Kd: 24.2 nM
